Results taken from the supplement of paper PMC7877785.
± gives the uncertainty stated by the source.

Experiment: self-splicing fitness, log relative to wild type (ln ratio); higher = more splicing; Tetrahymena group I intron in knt gene, E. coli kanamycin selection, DiMSum; sequences stand for … in CUCUCU…GGAGGGAAAAGUUAUCAGGCAUGCACCUGGUAGCUAGUCUUUAAACCAAUAGAUUGCAUCGGUUUAAAAGGCAAGACCGUCAAAUUGCGGGAAAGGGGUCAACAGCCGUUCAGUACCAAGUCUCAGGGGAAACUUUGAGAUGGCCUUGCAAAGGGUAUGGUAAUAAGCUGACGGACAUGGUCCUAACCACGCAGCCAAGUCCUAAGUCAACAGAUCUUCUGUUGAUAUGGAUGCAGUUCACAGACUAAAUGUCGGUCGGGGAAGAUGUAUUCUUCUCAUAAGAUAUAGUCGGACCUCUCCUUAAUGGGAGCUAGCGGAUGAAGUGAUGCAACACUGGAGCCGCUGGGAACUAAUUUGUAUGCGAAAGUAUAUUGAUUAGUUUUGGAGUACUCGUGGUCG
Outline: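 Fitness was computed with DiMSum as the error-weighted combination of replicate fold changes, kanamycin versus none, each normalised to wild type. The library randomised all eight intron nucleotides of the P1ex region, with the intron placed in the knt kanamycin-resistance gene on pET-22b(+) in E. coli BL21(DE3). Six replicate transformations were grown overnight at 37°C or 30°C on LB agar with or without 25 μg/mL kanamycin, plus 100 μg/mL carbenicillin, 50 μM IPTG and 0.2% rhamnose. Pooled colonies were amplicon-sequenced on an Illumina HiSeq 2500.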

## AAGCAGCAAUAUUACGGAGC
30 °C
  self-splicing fitness (ln): -3.81 ± 0.37
37 °C
  self-splicing fitness (ln): -3.05 ± 0.23

## UGCCAGCAAUAUUACGCUAC
30 °C
  self-splicing fitness (ln): -3.47 ± 0.16
37 °C
  self-splicing fitness (ln): -2.78 ± 0.2

## CAGAAGCAAUAUUACGCACA
30 °C
  self-splicing fitness (ln): -1.56 ± 0.077
37 °C
  self-splicing fitness (ln): -0.438 ± 0.087

## GGCCAGCAAUAUUACGGCAU
30 °C
  self-splicing fitness (ln): -1.13 ± 0.056
37 °C
  self-splicing fitness (ln): -0.688 ± 0.066

## GGCCAGCAAUAUUACGUGUC
30 °C
  self-splicing fitness (ln): -3.2 ± 0.17
37 °C
  self-splicing fitness (ln): -1.41 ± 0.12

## UUAAAGCAAUAUUACGCAAA
30 °C
  self-splicing fitness (ln): -1.1 ± 0.079
37 °C
  self-splicing fitness (ln): -0.177 ± 0.12

## UUGGAGCAAUAUUACGAUUU
30 °C
  self-splicing fitness (ln): -3.2 ± 0.21
37 °C
  self-splicing fitness (ln): -2.86 ± 0.29

## CACGAGCAAUAUUACGAAAC
30 °C
  self-splicing fitness (ln): -2.02 ± 0.36
37 °C
  self-splicing fitness (ln): -1.68 ± 0.4

## UUACAGCAAUAUUACGGCCU
30 °C
  self-splicing fitness (ln): -0.981 ± 0.17
37 °C
  self-splicing fitness (ln): -1.23 ± 0.26

## AUGAAGCAAUAUUACGCAAC
30 °C
  self-splicing fitness (ln): -1.28 ± 0.16
37 °C
  self-splicing fitness (ln): -1.13 ± 0.16

## CGUUAGCAAUAUUACGAGGG
30 °C
  self-splicing fitness (ln): -3.63 ± 0.47
37 °C
  self-splicing fitness (ln): -0.739 ± 0.19

## CACGAGCAAUAUUACGAGUG
30 °C
  self-splicing fitness (ln): -3.34 ± 0.17
37 °C
  self-splicing fitness (ln): -1.83 ± 0.18

## AAGAAGCAAUAUUACGGGAA
30 °C
  self-splicing fitness (ln): -1.79 ± 0.14
37 °C
  self-splicing fitness (ln): -1.85 ± 0.13

## ACCGAGCAAUAUUACGAAGG
30 °C
  self-splicing fitness (ln): -2.76 ± 0.17
37 °C
  self-splicing fitness (ln): -2.7 ± 0.28

## ACCGAGCAAUAUUACGCAAC
30 °C
  self-splicing fitness (ln): -2.01 ± 0.2
37 °C
  self-splicing fitness (ln): -0.42 ± 0.2

## GCUCAGCAAUAUUACGUGGU
30 °C
  self-splicing fitness (ln): -1.88 ± 0.13
37 °C
  self-splicing fitness (ln): -1.31 ± 0.17

## UAAUAGCAAUAUUACGCGGG
30 °C
  self-splicing fitness (ln): -3.18 ± 0.21
37 °C
  self-splicing fitness (ln): -1.65 ± 0.2

## UACAAGCAAUAUUACGGCCC
30 °C
  self-splicing fitness (ln): -1.69 ± 0.31
37 °C
  self-splicing fitness (ln): -1.35 ± 0.44

## UUAGAGCAAUAUUACGAGAU
37 °C
  self-splicing fitness (ln): -2.03 ± 0.43

## AACCAGCAAUAUUACGUCCA
30 °C
  self-splicing fitness (ln): -0.505 ± 0.061
37 °C
  self-splicing fitness (ln): -0.595 ± 0.068

## CUGCAGCAAUAUUACGGCAU
30 °C
  self-splicing fitness (ln): -0.953 ± 0.057
37 °C
  self-splicing fitness (ln): -0.378 ± 0.071

## CCGGAGCAAUAUUACGAUCC
30 °C
  self-splicing fitness (ln): -2.16 ± 0.49

## UAAUAGCAAUAUUACGUUAG
30 °C
  self-splicing fitness (ln): -1.84 ± 0.094
37 °C
  self-splicing fitness (ln): -1.13 ± 0.12

## CGGGAGCAAUAUUACGAGCA
30 °C
  self-splicing fitness (ln): -3 ± 0.19
37 °C
  self-splicing fitness (ln): -3.2 ± 0.31

## GACUAGCAAUAUUACGUUAA
30 °C
  self-splicing fitness (ln): -2.16 ± 0.12
37 °C
  self-splicing fitness (ln): -0.716 ± 0.11

## UGUUAGCAAUAUUACGUGGG
30 °C
  self-splicing fitness (ln): -3.19 ± 0.27
37 °C
  self-splicing fitness (ln): -2.89 ± 0.27

## UGUAAGCAAUAUUACGGCAU
30 °C
  self-splicing fitness (ln): -1.48 ± 0.12
37 °C
  self-splicing fitness (ln): -0.402 ± 0.11

## CUAAAGCAAUAUUACGUGCU
30 °C
  self-splicing fitness (ln): -2.89 ± 0.14
37 °C
  self-splicing fitness (ln): -2.75 ± 0.25

## GAUAAGCAAUAUUACGUUAU
30 °C
  self-splicing fitness (ln): -2.81 ± 0.1
37 °C
  self-splicing fitness (ln): -1.63 ± 0.1

## GAUGAGCAAUAUUACGCAUG
30 °C
  self-splicing fitness (ln): -1.61 ± 0.13
37 °C
  self-splicing fitness (ln): -2.14 ± 0.2

## CCUAAGCAAUAUUACGACUU
30 °C
  self-splicing fitness (ln): -4.37 ± 0.17
37 °C
  self-splicing fitness (ln): -2.4 ± 0.13

## AUAUAGCAAUAUUACGUUAA
30 °C
  self-splicing fitness (ln): -2.76 ± 0.23
37 °C
  self-splicing fitness (ln): -3.36 ± 0.37

## AUCAAGCAAUAUUACGGCCU
30 °C
  self-splicing fitness (ln): -0.508 ± 0.05
37 °C
  self-splicing fitness (ln): 0.15 ± 0.066

## GAGAAGCAAUAUUACGCUCU
30 °C
  self-splicing fitness (ln): -3.26 ± 0.35
37 °C
  self-splicing fitness (ln): -2.25 ± 0.44

## UGGCAGCAAUAUUACGUUAG
30 °C
  self-splicing fitness (ln): -0.283 ± 0.087
37 °C
  self-splicing fitness (ln): 0.37 ± 0.12

## CAAAAGCAAUAUUACGCAAA
30 °C
  self-splicing fitness (ln): -2.48 ± 0.14
37 °C
  self-splicing fitness (ln): -1.76 ± 0.17

## GUCGAGCAAUAUUACGGUAA
30 °C
  self-splicing fitness (ln): -1.74 ± 0.19
37 °C
  self-splicing fitness (ln): -2.18 ± 0.19

## UCCUAGCAAUAUUACGGCGU
30 °C
  self-splicing fitness (ln): -0.736 ± 0.087
37 °C
  self-splicing fitness (ln): -0.557 ± 0.12

## CUCCAGCAAUAUUACGGCGC
30 °C
  self-splicing fitness (ln): -3.37 ± 0.18
37 °C
  self-splicing fitness (ln): -2.81 ± 0.27

## AAGAAGCAAUAUUACGAGUG
30 °C
  self-splicing fitness (ln): -2.04 ± 0.12
37 °C
  self-splicing fitness (ln): -1.23 ± 0.13

## UCUAAGCAAUAUUACGCUUC
30 °C
  self-splicing fitness (ln): -3.47 ± 0.3
37 °C
  self-splicing fitness (ln): -1.9 ± 0.31

## GUUCAGCAAUAUUACGUUCC
30 °C
  self-splicing fitness (ln): -2.79 ± 0.29
37 °C
  self-splicing fitness (ln): -1.78 ± 0.41

## GGUCAGCAAUAUUACGAGAG
30 °C
  self-splicing fitness (ln): -3.37 ± 0.42
37 °C
  self-splicing fitness (ln): -1.16 ± 0.25

## CACUAGCAAUAUUACGUAUU
30 °C
  self-splicing fitness (ln): -3.28 ± 0.17
37 °C
  self-splicing fitness (ln): -2.11 ± 0.15

## ACACAGCAAUAUUACGCCAC
30 °C
  self-splicing fitness (ln): -3.38 ± 0.33
37 °C
  self-splicing fitness (ln): -2.66 ± 0.31

## CCCAAGCAAUAUUACGAAUA
30 °C
  self-splicing fitness (ln): -3.15 ± 0.27
37 °C
  self-splicing fitness (ln): -2.68 ± 0.25

## CCAGAGCAAUAUUACGACGA
30 °C
  self-splicing fitness (ln): -2.94 ± 0.25
37 °C
  self-splicing fitness (ln): -2.34 ± 0.3

## UCAAAGCAAUAUUACGGAAU
30 °C
  self-splicing fitness (ln): -3.53 ± 0.17
37 °C
  self-splicing fitness (ln): -2.94 ± 0.23

## UGUGAGCAAUAUUACGUUAU
30 °C
  self-splicing fitness (ln): -4.11 ± 0.28
37 °C
  self-splicing fitness (ln): -3.51 ± 0.28

## CGGGAGCAAUAUUACGGGGG
30 °C
  self-splicing fitness (ln): -2.37 ± 0.3

## AGUAAGCAAUAUUACGUACA
30 °C
  self-splicing fitness (ln): -0.932 ± 0.1
37 °C
  self-splicing fitness (ln): 0.0596 ± 0.13

## GGCCAGCAAUAUUACGCCUG
30 °C
  self-splicing fitness (ln): -2.83 ± 0.27
37 °C
  self-splicing fitness (ln): -1.68 ± 0.23

## GAGCAGCAAUAUUACGGAGU
30 °C
  self-splicing fitness (ln): -3.32 ± 0.26
37 °C
  self-splicing fitness (ln): -3.07 ± 0.4

## CGGUAGCAAUAUUACGGGUG
30 °C
  self-splicing fitness (ln): -0.483 ± 0.068
37 °C
  self-splicing fitness (ln): 0.146 ± 0.077

## CGAGAGCAAUAUUACGCCUU
30 °C
  self-splicing fitness (ln): -3.73 ± 0.43
37 °C
  self-splicing fitness (ln): -1.07 ± 0.29

## CCAGAGCAAUAUUACGCGCU
30 °C
  self-splicing fitness (ln): -2.97 ± 0.24
37 °C
  self-splicing fitness (ln): -1.89 ± 0.34

## GUUCAGCAAUAUUACGCUGA
30 °C
  self-splicing fitness (ln): -2.16 ± 0.24
37 °C
  self-splicing fitness (ln): -2.43 ± 0.31

## AUAAAGCAAUAUUACGAAAG
30 °C
  self-splicing fitness (ln): -2.01 ± 0.12
37 °C
  self-splicing fitness (ln): -1.25 ± 0.14

## UGCUAGCAAUAUUACGGCUU
30 °C
  self-splicing fitness (ln): -0.619 ± 0.13
37 °C
  self-splicing fitness (ln): -1.06 ± 0.15

## GCGGAGCAAUAUUACGCUUU
30 °C
  self-splicing fitness (ln): -3.1 ± 0.31
37 °C
  self-splicing fitness (ln): -3.21 ± 0.28
